Experiment [1] addresses human KRAS^G12V (residues 1-169) (human) (UniProt P01116). Put plainly: stopped-flow fluorescence kinetics.
The target in experiment [2] is human SOS1 (residues 564-1049), SOS1^cat (Homo sapiens, UniProt Q07889, labelled with Alexa488 for flow cytometry (SOS1-488)). Description: BLI. For orientation: Biolayer interferometry detects binding as a change in optical thickness at a sensor tip.

The kon is the rate constant with which the complex forms. Higher therefore signals faster complex formation. As for “human SOS1 (residues 564-1049), SOS1^cat (from UniProt Q07889 564-1049) (domain or fragment)”, in experiment [1], the fold decrease of KD1 with Nb22 against SOS1 alone was 3.1 fold, the fold increase of k1 (kon) with excess Nb22 against SOS1 alone stood at 4 fold, the on-rate (kon) came to 4.2e+06 M⁻¹ s⁻¹ and the ratio of k-1 (koff) with Nb14 to SOS1 alone came out at 0.3 fold.

B1: Nanobody Nb77 (VHH)
VHH: QVQLVESGGGLVQPGGSLRLSCAASRSISSINIMGWYRQAPGKERESVASHTRDGSTDYADSVKGRFTISRDNAKNTVYLQMNSLKPEDTAVYYCTTLTGFPRIRSWGQGTQVTVSS
What is called Kd is the equilibrium constant for the complex coming apart. Low values mean a tighter complex, high ones a looser complex. The molecule B1 gave an equilibrium dissociation constant (Kd) in experiment [2] of 70 ± 10 nM.

These data come from paper doi:10.1101/2022.12.06.519258 (bioRxiv, 2022).
